{"source": "paper PMC6487263", "about": "“Kinetic and structural analysis of human ALDH9A1” (Bioscience Reports, 2019)", "proteins": {"B1": {"name": "human ALDH9A1 (enzyme, UniProt P49189 1-494, looked up)", "chain": "MSTGTFVVSQPLNYRGGARVEPADASGTEKAFEPATGRVIATFTCSGEKEVNLAVQNAKAAFKIWSQKSGMERCRILLEAARIIREREDEIATMECINNGKSIFEARLDIDISWQCLEYYAGLAASMAGEHIQLPGGSFGYTRREPLGVCVGIGAWNYPFQIASWKSAPALACGNAMVFKPSPFTPVSALLLAEIYSEAGVPPGLFNVVQGGAATGQFLCQHPDVAKVSFTGSVPTGMKIMEMSAKGIKPVTLELGGKSPLIIFSDCDMNNAVKGALMANFLTQGQVCCNGTRVFVQKEILDKFTEEVVKQTQRIKIGDPLLEDTRMGPLINRPHLERVLGFVKVAKEQGAKVLCGGDIYVPEDPKLKDGYYMRPCVLTNCRDDMTCVKEEIFGPVMSILSFDTEAEVLERANDTTFGLAAGVFTRDIQRAHRVVAELQAGTCFINNYNVSPVELPFGGYKKSGFGRENGRVTIEYYSQLKTVCVEMGDVESAF", "notes": "Human ALDH9A1, a protein of 494 amino acids; the ORF was amplified with gene-specific primers and ligated into pCDFDuet (BamHI, XhoI); Monomer of 55.4 kDa including the His-tag; cloning into the BamHI site of pCDFDuet would place a His6 tag at the N-terminus (surmised); Residues 232-256 are disordered in the crystal structures; also called HsALDH9A1; TMABALDH; source: E. coli (T7 express; …)"}}, "molecular_target": "the molecule itself", "assay": "crystal structure; three crystal forms (P2(1)2(1)2, P2(1), C2) at 2.5, 2.9 and 2.3 Å; co-crystallised with 50 mM NAD+ with or without 10 mM TMABA, PEG 4000, 0.1 M sodium citrate pH 5.6; apoform seen; tetramer as dimer-of-dimers", "data": [{"protein": "B1", "values": [{"measurement": "stoichiometry N", "value": 4}]}]}
